This is an account of results in patent publication US20220112288A1 (published 2022).

Test [1] has as its target T1, human CD8 on human pan T cells (CD4-negative population) (human, UniProt P01732 22-235; P10966 22-210).
T1 construct: whole, on cells; Target is CD8 as it stands on primary human pan T cells
As to the kind of experiment: flow cytometry, 20 nM antibody on human pan T cells, A647 anti-human IgG Fc; geomean ratio in CD4-negative population.

Test [2] deals with T2, human CD4 on cells (SKW3 cells; human PBMCs) (human, UniProt P01730 26-458).
T2 construct: whole, on cells; SKW3 CD4 knockout cells served as the negative cell line for the WT vs KO ratios; also called hCD4; SKW3 WT
As to the kind of experiment: FACS confirmation, supernatant on SKW3 WT cells, anti-hu Kappa FITC (Bkrd gMFI = 2500).

Test [3] deals with T2, human CD4 on cells (SKW3 cells; human …). As to the kind of experiment: SKW3 FACS binning; competitor RPA-T4-PE-Dazzle 594 added after supernatant (background 783, max binding 15000).
The target is the same in test [4]. As to the kind of experiment: FACS primary screen, non-clonal hybridoma supernatant; SKW3 WT vs SKW3 CD4 KO cells, anti-hKappa-FITC.
The target is the same in test [5]. As to the kind of experiment: SKW3 FACS binning; competitor OKT4-A488 added after supernatant (background 2163, max binding 8200).
Test [6] has the same target. As to the kind of experiment: SKW3 FACS binning; competitor OKT4a added after supernatant, anti-hu A647 secondary (background 5000, max binding 35000).
Test [7] shares this target. As to the kind of experiment: FACS confirmation, supernatant on human PBMCs, anti-mFc 647, CD4+ gate.
In test [8] the target is T3, huCD4-HIS (human, UniProt P01730 26-390, limits assumed).
T3 construct: Named only in the head of the ELISA binning column; not shown: HIS tag
As to the kind of experiment: ELISA binning; competitor Ibalizumab, 100 ng/mL huCD4-HIS, anti-HIS HRP detection (background 45, max binding 3000000). A general note: In an ELISA, binding on a coated surface is turned into a signal by an enzyme label.

Test [9] addresses T2, human CD4 on cells (SKW3 cells; human …). As to the kind of experiment: FACS confirmation, supernatant on human PBMCs, anti-mFc 647, percent of viable cells.
Test [10] has the same target. As to the kind of experiment: FACS primary screen, non-clonal hybridoma supernatant; SKW3 WT vs SKW3 CD4 KO cells, anti-mFc-647.
For test [11] the target is unchanged. As to the kind of experiment: FACS confirmation, supernatant on SKW3 WT cells, anti-mFc 647 (Bkrd gMFI = 3300).

T1 sequence (P01732 22-235, chain 1 of 2): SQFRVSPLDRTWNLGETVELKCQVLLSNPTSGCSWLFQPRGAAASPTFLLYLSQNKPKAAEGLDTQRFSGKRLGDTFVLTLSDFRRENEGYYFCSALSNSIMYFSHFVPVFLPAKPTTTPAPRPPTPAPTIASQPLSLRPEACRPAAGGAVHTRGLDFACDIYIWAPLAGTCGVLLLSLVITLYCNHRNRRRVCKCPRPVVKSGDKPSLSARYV
T1 sequence (P10966 22-210, chain 2 of 2): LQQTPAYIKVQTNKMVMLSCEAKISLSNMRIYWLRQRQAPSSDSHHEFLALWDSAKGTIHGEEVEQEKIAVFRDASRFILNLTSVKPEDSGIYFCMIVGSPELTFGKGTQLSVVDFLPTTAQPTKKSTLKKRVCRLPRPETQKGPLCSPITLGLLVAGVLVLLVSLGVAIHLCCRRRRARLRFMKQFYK

B1: CD8B311 (antibody, human IgG1, kappa, V domains shown)
VH: QVQLKESGPELVKPGASVKLSCKASGYTFTSYWMHWVKQRPGQGLEWIGMIHPNSGSTNYNEKFKSKATLTVDKSSSTAYMQLSSLTSEDSAVYYCARCGYDGAWFAYWGQGTSVTVSS
VL: DIQMTQTTSSLSASLGDRVTISCSASQGISNCLNWYQQKPDGTVKLLIHYTSSLHSGVPSRFSGGGSGTHYSLTISNLEPEDIATYYCQQYSKVPYTFGSGTKLEIKR
notes: Full-length human IgG1, kappa
For B1, the “Cell Binding to Human PanT Signal/Background (of CD4 negative population)” value in test [1] was found to be 1 signal/background.

B2: 75110_05E05A (antibody, V domains shown)
VH: QVQLQESGPGLVKPSETLSLTCTVSGGSIGSYYWSWIRQPAGKGLEWIGRIYTSGSTNYNPSLKSRVTMSFDTSKNQFSLKLNSVTAADTAVYYCATDGGVGDSLDYWGQGTLVTVSS
VL: DIVMTQTPLSLPVTPGEPASISCRSSQSLLDSDDGNTYLDWYLQKPGQSPQLLIYTLSYRASGVPDRFSGSGSGTDFTLKISRVEAEDVGVYYCMQHIEFPFTFGPGTKVDIK
notes: Tested as non-clonal hybridoma supernatant (AlivaMab Mouse Kappa), detected with anti-mouse Fc and anti-human kappa
Turning to B2, the gMFI worked out at 8320 gMFI in [2] and 38800 gMFI in test [11]. The “RPA-T4-PE-Dazzle 594 signal in binning” value in [3] was found to be 16500. Also, the “SKW3 WT vs KO anti-hKappa-FITC” value in test [4] came to 3.2 fold. In [5], the “OKT4 A488 signal in binning” value turned out to be 9100. The “OKT4a anti-hu A647 signal in binning” value in test [6] is 35500. Also, in [7], the “CD4+ gate RL1 Binding” value was found to be 227000. The “Ibalizumab ELISA binning signal” value in test [8] was determined as 1.64e+06. In addition, the “CD4+ Percent Bound of Viable” value in test [9] is 28%. In addition, the “SKW3 WT vs KO anti-mFc-647” value in [10] came to 9.4 fold.

B3: CD8B248 (antibody, human IgG1, kappa, V domains shown)
VH: EVQLQQSGAELARPGASVKMSCKASGYTFTTYTMHWVKQRPGQGLEWIGYINPSSGYTKYNQKFTDKATLTADKSSSTAYMQLSSLTSEDSAVYYCARLWAYWGQGTLVTVSA
VL: DVVMTQTPLSLPVSLGDQASISCRSSQSLVHSSGNTYLHWYLQKPGQSPKLLIYKGSNRFSGVSDRFSGSGSGTDFTLKISRVEAEDLGVYFCSQSTHVPFTFGSGTKLEMKR
notes: Full-length human IgG1, kappa
B3: the “Cell Binding to Human PanT Signal/Background (of CD4 negative population)” value in [1] came to 20 signal/background.

B4: CD8B254 (antibody, human IgG1, kappa, V domains shown)
VH: EVQLQQSGAELVKPGASVKMSCKTSGYTFSSYWITWVKQRPGQGLEWVGDIYPGSGSTNYNEKFKSKAALTVDTSSSTAFMQLNSLTSEDSAVYYCARESITTRITPFDHWGQGTTLTVSS
VL: DVVMTQTPLSLPVSLGDQASISCRSSQSLVHSSGNTYLHWYLQKPGQSPKLLIYKGSNRFSGVSDRFSGSGSGTDFTLKISRVEAEDLGVYFCSQSTHVPFTFGSGTKLEIKR
notes: Full-length human IgG1, kappa
As for B4, the “Cell Binding to Human PanT Signal/Background (of CD4 negative population)” value in [1] worked out at 23 signal/background.

B5: 75110_04H17A (antibody, V domains shown)
VH: QVQLQESGPGLVKPSETLSLTCTVSGGSISTYYWSWIRQSAGKGLEWIGRIYTSERPNYNPSLKSRVTMSVDTSKNQFSLKLNSVSAADTAVYYCARELERPYYYGMDVWGQGTTVTVSS
VL: DVQMTQSPSSLSASVGGRVTITCQASQDISNYLNWYQQKPGKAPKLLIYYASNLETGVPSRFSGSGSGTDFTFTISSLQPEDFATYYCQQYDNLPLTFGGGTKVEIK
notes: as for B2
Take B5: the values for the gMFI in test [2] and in test [11] were 7430 gMFI and 27200 gMFI, respectively. The “RPA-T4-PE-Dazzle 594 signal in binning” value in test [3] came to 16800. Further, the “SKW3 WT vs KO anti-hKappa-FITC” value in test [4] was 1.6 fold. For the same molecule, the “OKT4 A488 signal in binning” value in [5] is 9440. Further, the “OKT4a anti-hu A647 signal in binning” value in test [6] came out at 34000. Besides, in [7], the “CD4+ gate RL1 Binding” value was determined as 302000. In addition, the “Ibalizumab ELISA binning signal” value in test [8] turned out to be 1.89e+06. Besides, the “CD4+ Percent Bound of Viable” value in test [9] turned out to be 30%. The “SKW3 WT vs KO anti-mFc-647” value in test [10] was found to be 2.9 fold.

B6: CD8B245 (antibody, human IgG1, kappa, V domains shown)
VH: EFQLQQSGGGLVQPGGSLSLSCAAPGFTFTDYYMSWVRQSPGKALEWLALSRNKGNGYTTEYSASVKGRFTISRDNSQSILYLQMNVLRAEDSATYYCARTVTGTLFYYALDYWGQGTTVTVSS
VL: DIQMTQSPASLSASVGETVTITCRASENIYSYLAWYQQKQGKSPQFLVYNAKTLAAGVPSRFSGSGSGTQFSLKINRLQPEDFGTYYCQHHYGTPLTFGDGTRLEIKR
notes: Full-length human IgG1, kappa
Consider B6, for which, in [1], the “Cell Binding to Human PanT Signal/Background (of CD4 negative population)” value turned out to be 44 signal/background.

B7: CD8B250 (antibody, human IgG1, kappa, V domains shown)
VH: QVQLKESGPGLVAPSQSLSITCTVSGFSLSNYVVHWVRQSPGKGLEWLGVIWTDGSTDYNAAFISRLSISKDNSKSQVFFKMNSLQADDTAIYYCARNNGYFPAFFAYWGQGTLVTVSA
VL: DIVMTQSQKFMSTSVGDRVSVTCKASQNVDTDITWYQQKPGQSPKALIYSASYRYSGVPDRFTGSGSGTDFTLTITNVQSEDLAEYFCQQYNSYPLTFGSGTKLEMKR
notes: Full-length human IgG1, kappa
Turning to B7, in [1], the “Cell Binding to Human PanT Signal/Background (of CD4 negative population)” value amounted to 61 signal/background.

B8: CD8B324 (antibody, human IgG1, kappa, V domains shown)
VH: QVQLQQPGADLVKPGASVKLSCKASGYTSTSHWIHWVKQRPGQGLEWIGNIYPGSSSTNYNEKFKRMATLTVDTSSSTVYMVLSSLTSDDSAVYYCARHSPGHRDYAMDYWGLGTSVTVSS
VL: DIVMTQSQKFMPTTVGDRVSITCKASQNVGTAVAWYQQKPGQSPKLLIASASNRYTGVPDRFTGSGSGTDFTLTISTMQSEDLADYFCQQYSTYPLTFGAGTKLEMKR
notes: Full-length human IgG1, kappa
For the molecule B8, in test [1], the “Cell Binding to Human PanT Signal/Background (of CD4 negative population)” value was found to be 1610 signal/background.

B9: CD8B337 (antibody, human IgG1, kappa, V domains shown)
VH: QVTLKESGPGKVQPSQTLSLTCSFSGFSLSTSGMGVSWIRKPSGKGLEWLAHIFWDDDRRYKSSLKSRLTISKDTSSNQVFLMITSVDTADSATYYCARRVGYGDYAYFDVWGAGTTVTVSS
VL: DIQMTQYPASLSVSVGETVTITCRASENIYSDLAWYQQKQGKSPQLLVYAATNLADGVPSRFSGSGSGTQYSLKINSLQSEDFGNYYCQHFWGTPWTFGGGTKLEIKR
notes: Full-length human IgG1, kappa
B9: in [1], the “Cell Binding to Human PanT Signal/Background (of CD4 negative population)” value is 1980 signal/background.

B10: CD8B340 (antibody, human IgG1, kappa, V domains shown)
VH: QVQLQQPGAELVKPGASVRLSCKASGYTFTNYWMQWVQQRPGQGLEWIGEIDPSDTFTNYNQNFKDKATLTVDTSSSTAYLQLSSLTSEDSAVYYCARGDWDRDWYFDVWGTGTLVTVSA
VL: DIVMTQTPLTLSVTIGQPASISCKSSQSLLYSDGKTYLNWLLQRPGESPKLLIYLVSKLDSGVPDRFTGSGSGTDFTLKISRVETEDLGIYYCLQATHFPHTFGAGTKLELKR
notes: Full-length human IgG1, kappa
On to B10, for which, in test [1], the “Cell Binding to Human PanT Signal/Background (of CD4 negative population)” value turned out to be 8 signal/background.

B11: CD8B366 (antibody, human IgG1, kappa, V domains shown)
VH: EVQLQQSGPELVRPGASVKLSCTASGFNIKDDYIHWVKQRPEQGLEWIGRIDPANGNPRYAPKFQDKATLTADTSSNTAYLQLSSLTSEDTAVYYCARDDEGYYYFDVWGAGTSVTVSS
VL: DIKMTQSPSYLAASPGETITINCRASKSISKYLAWYQEKPGKTNKVLIYSGSTLQSGIPSRFSGSGSGTDFTLTISSLEPEDFAIYYCQQHNEYPLTFGDGTRLEIKR
notes: Full-length human IgG1, kappa
For B11, the “Cell Binding to Human PanT Signal/Background (of CD4 negative population)” value in test [1] came to 318 signal/background.

B12: CD8B186 (antibody, human IgG1, kappa, V domains shown)
VH: QVQLQQSGAELAKPGASVKMSCKASGYIFTSYWMHWVKQRPGQGLEWIGNINPSSGYAVYNQKFKDKATLTADQSSSTAYIQLNSLTSEDSAVYYCARRVFYGDSWFAYWGQGTSVTVSS
VL: DVQMIQSPASLSASVGETVTITCRASGNIHNYLAWYQQKQGKSPQLLVYNAKTLADGVPSRFSGSGSGTQYSLKINSLQPEDFGSYYCQHFWSTTWTFGGGTKLEIKR
notes: Full-length human IgG1, kappa
As to B12, in test [1], the “Cell Binding to Human PanT Signal/Background (of CD4 negative population)” value was found to be 36 signal/background.

B13: CD8B192 (antibody, human IgG1, kappa, V domains shown)
VH: QVQLQQSGPVLVKPGASVKMSCKASGYTFTDYYMNWVMQSHGKSLEWIGVINPYNGGTTYNQRFTGKATLTVDKSSSTAYMELNSLTSEDSAVYYCARNYGAMDSWGQGTSVTVSS
VL: DIQMTQSPASLSASVGETVTITCRASGNIHNYLAWYQQKQGKSPQLLVSNAKTLADGVPSRFGGSGSGTQYSLKINSLQPEDFGSYYCQHFWITPPTFGAGTRLEIKR
notes: Full-length human IgG1, kappa
For B13, in test [1], the “Cell Binding to Human PanT Signal/Background (of CD4 negative population)” value was 22 signal/background.
